This is an account of results in patent publication US20170298124A1, “ANTIBODIES AGAINST PATHOLOGICAL FORMS OF TDP-43 AND USES THEREOF” (Academia Sinica, published 2017).

In series [1] the target is TDP-43s short-form TDP-43 (RRM1-RRM2) (Mus musculus, UniProt Q921F2 Q921F2:101-265). The series can be described thus: intrinsic fluorescence titration (ex 280, em 350 nm), 1.5 uM protein, 30 mM Tris-HCl pH 8. To be noted: tags: prepared per Kuo et al 2009.
For series [2], the target named is TDP-43 full-length (oligomers) (Homo sapiens, UniProt Q13148 Q13148:1-414). In words: intrinsic fluorescence titration (ex 280, em 350 nm), 1.5 uM protein, 30 mM Tris-HCl pH 8; residual binding may come from minor monomer population. To be noted: chain copies: oligomer (stated); 1:1 stoichiometry of TDP-43 and ssDNA from fit.
Chain of TDP-43 full-length (oligomers) (Q13148 whole entry, one chain of several): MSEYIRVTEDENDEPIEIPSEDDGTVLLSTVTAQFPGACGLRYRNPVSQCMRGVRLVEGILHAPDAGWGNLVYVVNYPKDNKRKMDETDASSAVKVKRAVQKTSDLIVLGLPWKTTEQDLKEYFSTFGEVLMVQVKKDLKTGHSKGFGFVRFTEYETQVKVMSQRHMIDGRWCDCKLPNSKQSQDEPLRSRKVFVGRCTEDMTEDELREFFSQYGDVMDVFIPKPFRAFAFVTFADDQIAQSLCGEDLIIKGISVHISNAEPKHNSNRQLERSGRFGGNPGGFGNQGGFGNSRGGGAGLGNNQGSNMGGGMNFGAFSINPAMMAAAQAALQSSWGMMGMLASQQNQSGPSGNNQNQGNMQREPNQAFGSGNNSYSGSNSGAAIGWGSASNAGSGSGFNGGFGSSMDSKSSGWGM

For TGGGTCTCTCTG (ssDNA) [TAR DNA B-site], the Kd in series [1] was 0.38 µM; in series [2], 6.27 µM.

In the case of CTTTTTGCCTGT (ssDNA) [TAR DNA A-site], the values for the Kd in series [1] and in series [2] were 0.2 µM and 7.05 µM, respectively.

As a reminder, the Kd is the concentration at which binding is half-saturated. Higher therefore signals a looser complex.
